Laboratory results taken from PMC11774805, “The C-terminal α-helix is crucial for the activity of the bacterial ABC transporter BmrA” (The Journal of Biological Chemistry, 2024).
Residue numbers refer to the chain shown, from its start.

B1: Bacillus multidrug resistance ATP (BmrA) wt, full-length half-transporter (natural protein, Bacillus subtilis strain 168, UniProt O06967 1-589, looked up)
chain: MPTKKQKSKSKLKPFFALVRRTNPSYGKLAFALALSVVTTLVSLLIPLLTKQLVDGFSMSNLSGTQIGLIALVFFVQAGLSAYATYALNYNGQKIISGLRELLWKKLIKLPVSYFDTNASGETVSRVTNDTMVVKELITTHISGFITGIISVIGSLTILFIMNWKLTLLVLVVVPLAALILVPIGRKMFSISRETQDETARFTGLLNQILPEIRLVKASNAEDVEYGRGKMGISSLFKLGVREAKVQSLVGPLISLVLMAALVAVIGYGGMQVSSGELTAGALVAFILYLFQIIMPMGQITTFFTQLQKSIGATERMIEILAEEEEDTVTGKQIENAHLPIQLDRVSFGYKPDQLILKEVSAVIEAGKVTAIVGPSGGGKTTLFKLLERFYSPTAGTIRLGDEPVDTYSLESWREHIGYVSQESPLMSGTIRENICYGLERDVTDAEIEKAAEMAYALNFIKELPNQFDTEVGERGIMLSGGQRQRIAIARALLRNPSILMLDEATSSLDSQSEKSVQQALEVLMEGRTTIVIAHRLSTVVDADQLLFVEKGEITGRGTHHELMASHGLYRDFAEQQLKMNADLENKAG
notes: BmrA, ABC half-transporter of Bacillus subtilis strain 168, full length (last residue G589); Cloned into pET303-CT/His; source: E. coli, purified in presence of detergent (DDM)
B2: BmrA N581C (natural protein, Bacillus subtilis strain 168, UniProt O06967 1-589, looked up)
chain: B1 chain with N581C
notes: BmrA of Bacillus subtilis strain 168, full length, N581 replaced by Cys; Forms a disulfide-linked dimer without DTT; source: E. coli, purified in presence of detergent (DDM)
B3: BmrA A582C (natural protein, Bacillus subtilis strain 168, UniProt O06967 1-589, looked up)
chain: B1 chain with A582C
notes: BmrA of Bacillus subtilis strain 168, full length, A582 replaced by Cys; Forms a disulfide-linked dimer without DTT; source: E. coli, purified in presence of detergent (DDM)
B4: BmrA D583C (natural protein, Bacillus subtilis strain 168, UniProt O06967 1-589, looked up)
chain: B1 chain with D583C
notes: BmrA of Bacillus subtilis strain 168, full length, D583 replaced by Cys; Forms a disulfide-linked dimer without DTT; source: E. coli, purified in presence of detergent (DDM)
B5: BmrA M580C (natural protein, Bacillus subtilis strain 168, UniProt O06967 1-589, looked up)
chain: B1 chain with M580C
notes: BmrA of Bacillus subtilis strain 168, full length, M580 replaced by Cys; Forms a disulfide-linked dimer without DTT; source: E. coli, purified in presence of detergent (DDM)
B6: BmrA K579C (natural protein, Bacillus subtilis strain 168, UniProt O06967 1-589, looked up)
chain: B1 chain with K579C
notes: BmrA of Bacillus subtilis strain 168, full length, K579 replaced by Cys; Forms a disulfide-linked dimer without DTT; source: E. coli, purified in presence of detergent (DDM)
B7: BmrA L578A (natural protein, Bacillus subtilis strain 168, UniProt O06967 1-589, looked up)
chain: B1 chain with L578A
notes: BmrA of Bacillus subtilis strain 168, full length, L578 replaced by Ala; source: E. coli, purified in presence of detergent (DDM)
B8: BmrA F573A (natural protein, Bacillus subtilis strain 168, UniProt O06967 1-589, looked up)
chain: B1 chain with F573A
notes: BmrA of Bacillus subtilis strain 168, full length, F573 replaced by Ala; source: E. coli, purified in presence of detergent (DDM)
B9: BmrA E575A (natural protein, Bacillus subtilis strain 168, UniProt O06967 1-589, looked up)
chain: B1 chain with E575A
notes: BmrA of Bacillus subtilis strain 168, full length, E575 replaced by Ala; source: E. coli, purified in presence of detergent (DDM)
B10: BmrA D572A (natural protein, Bacillus subtilis strain 168, UniProt O06967 1-589, looked up)
chain: B1 chain with D572A
notes: BmrA of Bacillus subtilis strain 168, full length, D572 replaced by Ala; source: E. coli, purified in presence of detergent (DDM)
B11: BmrA L569A (natural protein, Bacillus subtilis strain 168, UniProt O06967 1-589, looked up)
chain: B1 chain with L569A
notes: BmrA of Bacillus subtilis strain 168, full length, L569 replaced by Ala; source: E. coli, purified in presence of detergent (DDM)
B12: BmrA A574V (natural protein, Bacillus subtilis strain 168, UniProt O06967 1-589, looked up)
chain: B1 chain with A574V
notes: BmrA of Bacillus subtilis strain 168, full length, A574 replaced by Val; source: E. coli, purified in presence of detergent (DDM)
B13: BmrA Q577A (natural protein, Bacillus subtilis strain 168, UniProt O06967 1-589, looked up)
chain: B1 chain with Q577A
notes: BmrA of Bacillus subtilis strain 168, full length, Q577 replaced by Ala; source: E. coli, purified in presence of detergent (DDM)
B14: BmrA Q576A (natural protein, Bacillus subtilis strain 168, UniProt O06967 1-589, looked up)
chain: B1 chain with Q576A
notes: BmrA of Bacillus subtilis strain 168, full length, Q576 replaced by Ala; source: E. coli, purified in presence of detergent (DDM)
B15: BmrA R571A (natural protein, Bacillus subtilis strain 168, UniProt O06967 1-589, looked up)
chain: B1 chain with R571A
notes: BmrA of Bacillus subtilis strain 168, full length, R571 replaced by Ala; source: E. coli, purified in presence of detergent (DDM)

Target: the molecule itself
Test: cross-linking + native gel or EMSA; blue native PAGE of purified BmrA wt and Cys variants; 0.25 mg/ml preincubated ± 100 uM DTT for 30 min at room temperature, then DDM to 1%; no ATP; 4 to 16% Bis-Tris gel; dimer to monomers

Row | Protein | stoichiometry N
1 | B1 | 2
2 | B2 | 2
3 | B3 | 2
4 | B4 | 2
5 | B5 | 2
6 | B6 | 2

Target: the molecule itself
Test: native gel or EMSA; blue native PAGE of purified BmrA wt and Ala (Val) variants in DDM micelles; 4 to 16% Bis-Tris gel; dimer to monomers

Row | Protein | binding result
7 | B7 | binds
8 | B8 | binds
9 | B9 | binds
10 | B10 | binds
11 | B11 | binds
12 | B12 | binds
13 | B13 | binds
14 | B14 | binds
15 | B15 | binds
